# From patent publication US12209135B2, “Anti-CD45 antibodies and conjugates thereof” (priority 2019, dated 2025)
# Where a chain is given by its changes, count along the chain named.
# T1: human CD45 ectodomain (Homo sapiens, UniProt P08575)
# T1 construct: purified human, rhesus or cynomolgus CD45 ectodomain
# T1 sequence (P08575 26-577): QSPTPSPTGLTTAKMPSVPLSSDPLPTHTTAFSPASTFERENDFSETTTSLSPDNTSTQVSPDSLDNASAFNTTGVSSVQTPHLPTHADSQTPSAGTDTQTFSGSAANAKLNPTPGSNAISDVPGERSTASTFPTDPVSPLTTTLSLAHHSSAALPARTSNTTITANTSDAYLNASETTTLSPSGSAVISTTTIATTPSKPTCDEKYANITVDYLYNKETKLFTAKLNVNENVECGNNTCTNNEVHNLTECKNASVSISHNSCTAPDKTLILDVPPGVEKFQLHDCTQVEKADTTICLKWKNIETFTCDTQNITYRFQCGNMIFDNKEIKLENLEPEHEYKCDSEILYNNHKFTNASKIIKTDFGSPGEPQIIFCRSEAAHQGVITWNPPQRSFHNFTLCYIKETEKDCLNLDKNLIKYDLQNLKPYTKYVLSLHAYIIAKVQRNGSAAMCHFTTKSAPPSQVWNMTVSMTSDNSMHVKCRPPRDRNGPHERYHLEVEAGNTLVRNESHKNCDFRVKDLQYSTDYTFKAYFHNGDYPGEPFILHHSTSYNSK
# T2: rhesus CD45 ectodomain (Macaca mulatta, UniProt A0A1D5R142)
# T2 construct: purified human, rhesus or cynomolgus CD45 ectodomain
# T2 sequence (A0A1D5R142 26-581): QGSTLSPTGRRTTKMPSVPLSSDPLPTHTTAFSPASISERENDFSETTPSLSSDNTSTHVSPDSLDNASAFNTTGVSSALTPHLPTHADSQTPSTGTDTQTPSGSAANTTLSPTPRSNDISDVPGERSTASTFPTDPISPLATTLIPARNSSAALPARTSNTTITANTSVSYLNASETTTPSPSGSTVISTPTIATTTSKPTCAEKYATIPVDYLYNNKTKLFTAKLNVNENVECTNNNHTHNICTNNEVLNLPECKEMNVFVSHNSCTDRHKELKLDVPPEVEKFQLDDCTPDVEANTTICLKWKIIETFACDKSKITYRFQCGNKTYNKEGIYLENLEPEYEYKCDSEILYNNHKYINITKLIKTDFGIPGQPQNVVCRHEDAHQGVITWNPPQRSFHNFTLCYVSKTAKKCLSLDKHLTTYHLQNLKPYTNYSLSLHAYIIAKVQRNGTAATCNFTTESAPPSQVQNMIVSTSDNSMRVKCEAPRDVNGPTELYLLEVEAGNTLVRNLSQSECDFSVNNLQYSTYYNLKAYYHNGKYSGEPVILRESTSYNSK
# B1: AbA: humanized and affinity matured variant of parent clone A; VH SEQ ID NO:71, VL SEQ ID NO:75 (antibody, V domains shown)
# VH: EVQLLESGGGLVQPGGSLRLSCAASGFTFNNYWMTWVRQAPGKGLEWVSSISSSGGSIYYPDRVKGRFTISRDNSKNTLYLQMNSLRAEDTAVYYCARDERWAGAMDAWGQGTTVTVSS
# VL: DIQMTQSPSSLSASVGDRVTITCKASQNINKNLDWYQQKPGKAPKLLIYETNNLQTGVPSRFSGSGSGTDFTLTISSLQPEDFATYYCYQHNSRFTFGQGTKLEIK
# B2: AbC: affinity matured variant of parent clone C; VH SEQ ID NO:91, VL SEQ ID NO:95 (antibody, V domains shown)
# VH: EVQLVESGGGLVQPGGSLRLSCAASGFTFNNYWMTWVRQAPGKGLEWVSSISSSGGSIYYPDSVKDRFTISRDNAKNSLYLQMNSLRAEDMAVYYCARLYYYDGGGDAWGQGTLVTVSS
# VL: GIQMTQSPSSLSASVGDRVTITCKASQDINKYLDWYQQKPGKAPKLLIYNTNNLHTGIPSRFSGSGSGTDYTLTISSLQPEDFATYYCLQHISRWTFGGGTKVEIK
# B3: AbB: affinity matured variant of parent clone B; VH SEQ ID NO:81, VL SEQ ID NO:85 (antibody, V domains shown)
# VH: EVQLVESGGGLVQPGGSLRLSCAASGFTFTNFWMAWIRQAPGKGLEWVASISSSGGSIYYPDSVKDRFTISRDNSKNTLYLQMNSLRAEDTAVYYCVKFHHYSGGGDAWGQGTLVTVSS
# VL: B2 VL with G1D, D28N, Y49H, N50Y, I92S
# B4: Ab5: variant of Ab4 with asparagine to serine substitution in CDR-L1; VH SEQ ID NO:41, VL SEQ ID NO:45 (antibody, V domains shown)
# VH: EVQLVESGGGLVQPGGSLRLSCAASGFTFEAYSMNWVRQAPGKGLEWVSYISLSGATIHYADSVKGRFTISRDNAKNSLYLQMNSLRAEDTAVYYCARGGQYYYTSSDYGEVAFDIWGQGTMVTVSS
# VL: DIVMTQSPLSLPVTPGEPASISCRSSQSLVSSGYNYLDWYLQKPGQSPQLLIYFGSSRASGVPDRFSGSGSGTDFTLKISRVEAEDVGVYYCMQRRRTPWSFGGGTKVEIK
# B5: Ab6: affinity matured human anti-CD45 IgG derived from Ab1; VH SEQ ID NO:51, VL SEQ ID NO:55 (antibody, V domains shown)
# VH: B4 VH with M122L
# VL: B4 VL with M4L
# B6: Ab7: variant of Ab3 with asparagine to serine substitution in CDR-L1; VH SEQ ID NO:61, VL SEQ ID NO:65 (antibody, V domains shown)
# VH: B4 VH with E1Q, Q13K, E30G, A31G, L53I, H59T, T105D
# VL: DIVMTQSPLSLPVTPGEPASISCRSSQSLVSSGYNYLDWYLQKPGQSPQLLIYFGSSRASGVPDRFSGSGSGTDFTLKISRVEAEDVGVYYCMQRRRTPPFTFGGGTKVEIK
# B7: Ab2: affinity matured human anti-CD45 IgG derived from Ab1; VH SEQ ID NO:11, VL SEQ ID NO:15 (antibody, V domains shown)
# VH: B4 VH with T105D
# VL: B4 VL with S32N
# Experiments:
# Assay in all cases: Biolayer interferometry (BLI, Octet) binding of immobilized IgG to purified CD45 ectodomain
# [1] = test system: cynomolgus CD45 ectodomain
# cynomolgus CD45 ectodomain, sequence (as listed by the source): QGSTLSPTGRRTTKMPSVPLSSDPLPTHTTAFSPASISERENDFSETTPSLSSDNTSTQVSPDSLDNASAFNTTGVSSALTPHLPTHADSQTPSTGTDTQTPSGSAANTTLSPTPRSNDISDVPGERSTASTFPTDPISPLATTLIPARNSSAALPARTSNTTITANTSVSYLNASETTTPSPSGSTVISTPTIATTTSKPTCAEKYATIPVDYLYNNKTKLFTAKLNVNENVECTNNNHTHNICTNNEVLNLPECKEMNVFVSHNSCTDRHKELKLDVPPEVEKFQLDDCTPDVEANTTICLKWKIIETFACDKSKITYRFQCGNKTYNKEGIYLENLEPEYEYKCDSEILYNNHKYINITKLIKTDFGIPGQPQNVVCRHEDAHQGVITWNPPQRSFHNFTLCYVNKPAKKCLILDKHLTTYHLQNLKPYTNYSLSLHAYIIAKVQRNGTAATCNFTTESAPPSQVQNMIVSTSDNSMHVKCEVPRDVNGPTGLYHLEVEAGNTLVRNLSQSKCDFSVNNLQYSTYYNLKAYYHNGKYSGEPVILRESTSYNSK
# Procedure: (§1) Antibody binding studies were performed at 25° C. in 1×PBS supplemented with 0.1% w/v bovine serum albumin with a Pall ForteBio Octet Red96 using biolayer interferometry (BLI).
# (§2) The apparent monovalent affinity (KD), apparent association rate (KON), and apparent dissociation rate (KOFF) were determined by local full fitting with a 1:1 binding model as calculated by ForteBio data analysis software version 10 of each IgG to purified human, cynomolgus or rhesus CD45 ectodomain. […] Binding was confirmed using
# Briefly, antibody binding studies were performed at 25° C. in 1×PBS supplemented with 0.1% w/v bovine serum albumin with a PALL FORTEBIO OCTET RED96 using biolayer interferometry (BLI). […]
# (§3) The apparent monovalent affinity (KD), apparent association rate (KON), and apparent dissociation rate (KDIS or KOFF) were determined by local full fitting with a 1:1 binding model as calculated by FORTEBIO data analysis software version 10. […] Each of the selected humanized antibodies AbA, AbB, and AbC was able to cross react with human and cynomolgus CD45.
# [2] = biological target: T1, human CD45 ectodomain; conditions: for CD45 binding compared with parent (qualitative): BLI / Octet
# Procedure: as §1, §2
# Briefly, antibody binding studies were performed at 25° C. in 1×PBS supplemented with 0.1% w/v bovine serum albumin with a PALL FORTEBIO OCTET RED96 using biolayer interferometry (BLI). Each purified antibody was immobilized onto anti-human Fc biosensors (AHQ; PALL FORTEBIO 18-5001) and incubated with 100 nM of purified human or 300 nM of cynomolgus CD45 ectodomain.
# as §3
# [3] = biological target: T2, rhesus CD45 ectodomain; conditions: Table 2, Rhesus CD45; for Kd: 50 nM antigen (Ab1: 300 nM)
# Procedure: as §1
# The apparent monovalent affinity (KD), apparent association rate (KON), and apparent dissociation rate (KOFF) were determined by local full fitting with a 1:1 binding model as calculated by ForteBio data analysis software version 10 of each IgG to purified human, cynomolgus or rhesus CD45 ectodomain. […] Binding was confirmed using […]
# [4] = Table 11, Cyno CD45, 300 nM antigen
# [5] = Table 2, Cynomolgus CD45, 50 nM antigen (Ab1: 300 nM)
Molecule,"KON ([1]; Table 11, Cyno CD45) [M⁻¹ s⁻¹]","Kdis ([1]; Table 11, Cyno CD45) [s⁻¹]","Kd [1, 4] [nM]","KON ([2]; Table 11, Human CD45) [M⁻¹ s⁻¹]","Kdis ([2]; Table 11, Human CD45) [s⁻¹]",improved affinity over the parent clone ([2]; text b859),Kdis [3] [s⁻¹],Kon [3] [M⁻¹ s⁻¹],Kd [3] [nM],"Kdis ([1]; Table 2, Cynomolgus CD45) [s⁻¹]","Kon ([1]; Table 2, Cynomolgus CD45) [M⁻¹ s⁻¹]",CD45 binding compared with parent (qualitative) [2],"Kdis ([2]; Table 2, Human CD45) [s⁻¹]","Kon ([2]; Table 2, Human CD45) [M⁻¹ s⁻¹]","Kd [1, 5] [nM]"
B1,9440,0.000322,34.1,50300,0.000181,,,,,,,,,,
B2,11100,0.000282,25.3,50800,0.000149,greater than 4 fold,,,,,,,,,
B3,8160,0.00042,51.5,43800,0.000239,,,,,,,,,,
B4,,,,,,,0.000193,113000,1.71,0.000164,117000,did not alter CD45 binding,3.36e-05,233000,
B5,,,,,,,0.000175,122000,1.44,0.000154,118000,,1.73e-05,242000,1.3
B6,,,,,,,0.000544,124000,4.39,0.000537,127000,did not alter CD45 binding,0.000615,264000,4.24
B7,,,,,,,0.000192,135000,1.42,0.000129,119000,,2.8e-05,245000,1.08
